Data published in the RNAGym collection of RNA variant scans (doi:10.7554/elife.80360).

B1: Twister Ribozyme (parent)
chain: AACACUGCCAAUGCCGGUCCCAAGCCCGGAUAAAAGUGGAGGGGGCGG

Variants of: B1
Experiment: self-cleavage, relative activity (ratio to wild type); higher = more cleavage; co-transcriptional

Row | Variant | self-cleavage
1 | A1C C9U | 0.174
2 | C25G A35G | 0.0857
3 | G13U G41C | 0.149
4 | U18A G28U | 0.314
5 | C8U A22G | 0.1
6 | A2U A4G | 0.413
7 | C15U C27A | 0.105
8 | G7A G16U | 0.161
9 | U18A U37C | 0.0568
10 | A4C C19A | 0.0783
11 | G39U G43U | 0.143
12 | C8G G16A | 0.061
13 | C9U A30U | 0.579
14 | C20G A32U | 0.0524
15 | A2U A40G | 0.163
16 | A1G C21U | 0.146
17 | A10U U12C | 0.931
18 | C26U U31A | 0.432
19 | G39A A40U | 0.161
20 | C20A G38C | 0.0639
21 | A23U U37A | 0.178
22 | C3U U6C | 0.0788
23 | A4G G17U | 0.0875
24 | C19A G41C | 0.114

Row | Variant | self-cleavage
25 | A1U G42U | 0.0745
26 | A4C G45U | 0.0976
27 | G36A G42C | 0.168
28 | C3A A33G | 0.0867
29 | G17U G47A | 0.237
30 | C5A G38A | 0.206
31 | G44A G45U | 1.11
32 | C5G U37G | 0.519
33 | C27U G45U | 0.638
34 | A2C G13C | 0.0312
35 | C26G G38C | 0.202
36 | C15U C21U | 0.101
37 | A2G G48U | 0.255
38 | A10G C46U | 1.02
39 | G16U A34U | 0.577
40 | C9G C15G | 0.0512
41 | G7A C8U | 0.0616
42 | U6A U31G | 1.01
43 | G29C G36U | 0.106
44 | A30C G43C | 0.103
45 | G17A A32C | 0.303
46 | U37C G42U | 0.127
47 | C21G A40G | 0.0831
48 | A30G G36U | 0.32

Row | Variant | self-cleavage
49 | G42C G44U | 0.162
50 | U31G C46U | 0.928
51 | U6G U18G | 0.0678
52 | C5G G13U | 0.0419
53 | C8U G43A | 0.145
54 | A1G G43U | 0.243
55 | C15U G28C | 0.988
56 | C8U A33U | 0.531
57 | G28A G42U | 0.261
58 | G28C C46U | 0.841
59 | G28C C46G | 0.565
60 | A11U A40U | 0.142
61 | G16U G24C | 0.118
62 | A10C G29C | 0.845
63 | C9U C25G | 0.113
64 | A4G C9G | 0.601
65 | C9G C20A | 0.0864
66 | G16U C20A | 0.109
67 | G16U C20U | 0.797
68 | C5A A40C | 0.129
69 | G16C U31C | 0.429
70 | C5A G42C | 0.184
71 | A2C G44C | 0.035
72 | A4C G13A | 0.0606

Row | Variant | self-cleavage
73 | A34G G45A | 0.721
74 | C3G C14U | 0.47
75 | C3G G47C | 0.149
76 | C25U A40C | 0.109
77 | U12C C19A | 0.314
78 | C3A G29C | 0.184
79 | G13U G48U | 0.357
80 | G7U U37G | 0.0777
81 | A4C C25U | 0.058
82 | U6A G47C | 0.296
83 | A11C A22U | 0.58
84 | U12A G28C | 1.02
85 | U31A U37G | 0.659
86 | U31A U37C | 0.591
87 | C14G G16C | 0.143
88 | G16U G47C | 0.426
89 | U12C A23C | 0.234
90 | G16C G44C | 0.649
91 | A4U U37C | 0.022
92 | C19A G39C | 0.126
93 | A30U A34G | 0.937
94 | A4U G47C | 0.111
95 | A1U C21U | 0.0559
96 | A23G C25U | 0.132

Row | Variant | self-cleavage
97 | U31C C46G | 0.923
98 | U6C G28A | 0.319
99 | C19U C21G | 0.107
100 | C9A A40C | 0.108
101 | C8U C9G | 0.158
102 | A2C A35G | 0.0429
103 | A33G G38U | 0.861
104 | G16C G24U | 0.0773
105 | A4U A22G | 0.0233
106 | C15G C20U | 0.0686
107 | C27A A30U | 0.707
108 | G7U G48U | 0.0928
109 | C27U G36C | 0.21
110 | C14G G48A | 0.0949
111 | G13A G48C | 0.91
112 | C21U C46U | 0.0929
113 | C25U C46A | 0.686
114 | U6C A10G | 0.809
115 | A4G A22G | 0.0987
116 | A32C U37A | 0.732
117 | C8G A30C | 0.122
118 | C15U U18C | 0.396
119 | A1G G48A | 0.414
120 | G13U G47C | 0.179

Row | Variant | self-cleavage
121 | A10C G17A | 0.391
122 | G7U C19A | 0.0864
123 | C21A A22U | 0.0641
124 | U12G A40C | 0.261
125 | C14A C26A | 0.38
126 | C14G | 0.171
127 | G13A C15G | 0.118
128 | C26U A34G | 0.147
129 | G7A A23G | 0.0819
130 | C27G G44U | 0.0884
131 | C5G C19G | 0.125
132 | C19G G39A | 0.104
133 | G44C G45U | 0.483
134 | A35C G43A | 0.235
135 | A10U A34C | 0.279
136 | C27U G44C | 0.777
137 | C26A G43C | 0.111
138 | A1C G24U | 0.111
139 | C20A G42U | 0.668
140 | U6A C25G | 0.121
141 | G36A C46U | 0.766
142 | C20G G28A | 0.141
143 | G13C G41U | 0.0855
144 | U12A G43C | 0.255

Row | Variant | self-cleavage
145 | G29C G39U | 0.12
146 | A10G G41U | 0.781
147 | G24A A30C | 0.0875
148 | G45A G48C | 1.02
149 | A2C G41A | 0.0488
150 | A22G G43U | 0.101
151 | U12G G16C | 0.753
152 | A2G A23G | 0.0805
153 | G42U C46A | 0.162
154 | G36U G45C | 0.199
155 | A34C C46A | 0.142
156 | U12G U31C | 0.907
157 | G42U G44A | 0.524
158 | C8A C14U | 0.597
159 | G36A G44A | 0.8
160 | G36A G44U | 0.791
161 | U37A G48A | 0.797
162 | C27A G38A | 0.241
163 | G17A G43A | 0.156
164 | G24A G41A | 0.0508
165 | A23G U37A | 0.111
166 | A1G A32C | 0.497
167 | G17C C46U | 0.144
